41 sequences from the nanobody polyreactivity screen of Harvey et al. (2022) can be followed below.

This data set in a line: yeast display, Sf9 membrane polyspecificity reagent, FACS + sequencing; frameworks hold sequencing errors. In a few lines: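 Genes from sorted yeast were amplified by colony PCR, read by MiSeq 2 × 250 sequencing and filtered on CDR length. These cells carried a synthetic nanobody library in Saccharomyces cerevisiae BJ5465 and were sorted by FACS into low and high (top ~1%) gates on anti-HA and streptavidin fluorescence. Polyreactivity is labelled according to the gate of origin.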
As for “QVQLVESGGGLVQAGGSLRLSCAASGSTFYNYAMGWYRQEPGKERELVAAINYSGGDTYYADSVKGRFTISRDNAKNTVYLQMNSLKPEDNAVYYCNAEWDYYSSNPVQNDYDYWGQGTQVTVSS”, the “polyreactivity (PSR sort gate)” value is recorded as “high polyreactivity”.

Take “QVQLVESGGGLVQAGGSLRLSCAASGSTFYPNAMGRYRQAPGKERELVAAISRGTRTKYADSVKGRFTISRDNAKNNVYLQMNSLKPEDTAVYYCAADTGTGLDWGQGTQVNVSS”: the “polyreactivity (PSR sort gate)” value was “high polyreactivity”.

Turning to “QVQLVESGGGLVQAGGSLRLSCAASGSTFYPNAMGWYIQAPGKERELVADITISGGRTYYADSVKGLFTISRDNAKNTVYLQMNSLKPEDTAVYYCNTRGIFFQSQTHDYWGQGTQVTVSS”, the “polyreactivity (PSR sort gate)” value was “low polyreactivity”.

Consider “QVQLVESGGGLVQAGGSLRLSCAASGSTFYPNAMGWYRQAPGKERELVAAISGDDSTYYADSVKGRFTISRDNAKNTVYLQMNSLKPEDTAVYYCAAGDYRIGYLYYYWGQGTQVTVSS”, for which the “polyreactivity (PSR sort gate)” value was “low polyreactivity”.

For the sequence “QVQLVESGGGLVQAGGSLRLSCAASGSTFYPNAMGWYRQAPGKERELVAAITSAGSTYYADSVKGRFTISRDNAKNTVYLQMNSLKPEDTAVYYCAKRRASRYYWGQGTQVTVSS”, the “polyreactivity (PSR sort gate)” value is “high polyreactivity”.

For “QVQLVESGGGLVQAGGSLRLSCAASGSTFYPNAMGWYRQAPGKERELVAAITSGGSTNYADSVKGRFTISRDNAKNTVYLQMNSLKPEDTAVYYCAAVGKYRIRSDYWGQGTQVTVSS”, the “polyreactivity (PSR sort gate)” value was “low polyreactivity”.

As for “QVQLVESGGGLVQAGGSLRLSCAASGSTFYPNSMVWYRQAPGKERELVAAISRGTRTKYADSVKGRFTISRDNAKNSVYLQKNSLKPEDTAVYYCAADTGTGLDWGQGTQVTVSS”, the “polyreactivity (PSR sort gate)” value was “high polyreactivity”.

Turning to “QVQLVESGGGLVQAGGSLRLSCAASGSTFYPYAMGGYRQAPGKERELVAAISSGGSTYYADSVKGRFTISRDNAKNTVYLQMNSLKPADTAVYYCAADFYYAYYWGQGTQVTVSS”, the “polyreactivity (PSR sort gate)” value was “low polyreactivity”.

Regarding “QVQLVESGGGLVQAGGSLRLSCAASGSTFYPYAMGWYRQAPGKERELVAAINLRADSTNYADSVKGRFTISRDNAKNTVYLQMNSLKPEDTAVYYCAARVSYRSGRRPLWAYNSWGQGTQVTVSS”, the “polyreactivity (PSR sort gate)” value is on record as “high polyreactivity”.

Regarding “QVQLVESGGGLVQAGGSLRLSCAASGSTFYPYAMGWYRQAPGKERELVAAINWSGGTTYYADSVKGRFTLSRDNAKNTVYLQMNSLKPEDTAVYYCAAVGYPPGYGYWGQGTQVTVSS”, the “polyreactivity (PSR sort gate)” value is reported as “low polyreactivity”.

As for “QVQLVESGGGLVQAGGSLRLSCAASGSTFYPYAMGWYRQAPGKERELVAAISSGGSTSYADSVKGRFTISRENAKNTVYLQMNSLKPEDTAVYYCNASSPVAVPVYDYDYWGQGTQVTVSS”, the “polyreactivity (PSR sort gate)” value is given as “low polyreactivity”.

As to “QVQLVESGGGLVQAGGSLRLSCAASGSTFYPYAMGWYRQAPGKERELVAAITSGGRTYYADSVKGRFTISRDNAKNTVYLQMNSLKPEDTAVYYCAAVYINRLTSKYEYWGQGTQVTVSS”, the “polyreactivity (PSR sort gate)” value is listed as “high polyreactivity”.

Regarding “QVQLVESGGGLVQAGGSLRLSCAASGSTFYPYAMGWYRQAPGNERELVAALDRGGSTSYADSVKGRFTISRDNAKNTVYLQMIRLKPEDTAVYYCAVARGGRRKYEYWGQGTQVTVSS”, the “polyreactivity (PSR sort gate)” value is “low polyreactivity”.

“QVQLVESGGGLVQAGGSLRLSCAASGSTFYPYDMGLYRQAPGKERELVATITSTGGSTNYADSVKGRFTISRDNAQNTVYLQMNSLKPEDTAVYYCAKDWNDDQHSWDTPFDYWGQGTHVTVSS”: the “polyreactivity (PSR sort gate)” value was “low polyreactivity”.

As for “QVQLVESGGGLVQAGGSLRLSCAASGSTFYPYGMGWYRHAPGKERDLVAAISKRGGSTYYADSVKGRFTISRDNAKNTVYLQMNSLKPEDTAVYYCAAYGAGKFWAEHNYWGQGTQVTVSS”, the “polyreactivity (PSR sort gate)” value is listed as “high polyreactivity”.

For the sequence “QVQLVESGGGLVQAGGSLRLSCAASGSTFYPYPMGWYRQAPGKERELVATISSSGGTTSYADSVKGRFTISRDNAKNTVYLQMNSLKPEDTAVYYGAARGYGSLHHVLGHHDSWGQGTQVTVSS”, the “polyreactivity (PSR sort gate)” value is “low polyreactivity”.

For the sequence “QVQLVESGGGLVQAGGSLRLSCAASGSTFYQYAMGWYRQAPGKERELVAAISKSGGSTYYADSVKGRFTISRDNAKNTVYLQMNSLKPEDTAVYYCATRWIKGRNMDYWGQGTQVTVSS”, the “polyreactivity (PSR sort gate)” value is “high polyreactivity”.

In the case of “QVQLVESGGGLVQAGGSLRLSCAASGSTFYQYAMGWYRQAPGKERELVAAISRSGSTNYADSVKGRFTISRDNAKNTVYLQMNSLKPEDTAVYDCAARLGTRQYKMDYWGQGTQVTVSS”, the “polyreactivity (PSR sort gate)” value is “high polyreactivity”.

Regarding “QVQLVESGGGLVQAGGSLRLSCAASGSTFYQYAMGWYRQAPGKERELVARITYNGGRTYYADSVKGRFTISRDNAKNTVYLQMNSLKPEDTAVYYCAARRWSTGGYGQFDYWGQGTQVTVSS”, the “polyreactivity (PSR sort gate)” value is “low polyreactivity”.

In the case of “QVQLVESGGGLVQAGGSLRLSCAASGSTFYQYVMGWYRQAPGKERELVADITNGGSTYYADSVKGRFTISRDNAKNTVYLQMNSLKPEDTAVYYCAADGGYYWYTYWYGGLYYWGQGTQVTVSS”, the “polyreactivity (PSR sort gate)” value was “high polyreactivity”.

Turning to “QVQLVESGGGLVQAGGSLRLSCAASGSTFYRNAMGWYIQAPGKEREFVAAISYSGGGTYYADSVKGRFTISRDNAKNTVYLQMNSLKPEETAVYYCAADVSGWEYDYWGQVTQVTVSS”, the “polyreactivity (PSR sort gate)” value is “low polyreactivity”.

Turning to “QVQLVESGGGLVQAGGSLRLSCAASGSTFYRNAMGWYRQAPGKERAFVAAISFRGGGTYADSVKGRFTISRDNAKNTVYLQMNSLKPEDTAVYYCAADHLSYPRRYEYWGQGTQVTVSS”, the “polyreactivity (PSR sort gate)” value was “low polyreactivity”.

In the case of “QVQLVESGGGLVQAGGSLRLSCAASGSTFYRNAMGWYRQAPGKEREFVAAISFRGGGTYADSVKGRFTISRDNAKNTVYLQMNSLIPEDTAVYYCAADHLSYRRRYEYWGQGTQVTVSS”, the “polyreactivity (PSR sort gate)” value is on record as “low polyreactivity”.

With “QVQLVESGGGLVQAGGSLRLSCAASGSTFYRNAMGWYRQAPGKERELVAAISGSDGSTYYADSVKGRFTISRDNAKNTVYLQMNSLKPEDTAVYYCNARRWWVIRDYWGQGTQVTVSS”, the “polyreactivity (PSR sort gate)” value is “high polyreactivity”.

With “QVQLVESGGGLVQAGGSLRLSCAASGSTFYRNAMGWYRQAPGKERELVAAISRRSGTTYYADSVKGRFTISRDNAKNTVYLQMNSLKPEDTSVYYCATVRGGYDYWGQGTQVTVSS”, the “polyreactivity (PSR sort gate)” value is “high polyreactivity”.

Consider “QVQLVESGGGLVQAGGSLRLSCAASGSTFYRNAMGWYRQAPGKERELVAAISSTGGSTYYADSVKGRFTISRDNAKNTVYLQMNSLKPEDTAVYYCARDYSWLTRGSDYDYWGQGTQVTVSS”, for which the “polyreactivity (PSR sort gate)” value is “low polyreactivity”.

For the sequence “QVQLVESGGGLVQAGGSLRLSCAASGSTFYRNAMGWYRQAPGKERELVAAISTSGGSTYYADSVKGRFTISRDNAKNTVYLQMNSLKPEDTAVYYCATDSYYFDVMYGWKEYDYWGQGTQVTVSS”, the “polyreactivity (PSR sort gate)” value was “high polyreactivity”.

In the case of “QVQLVESGGGLVQAGGSLRLSCAASGSTFYRNTMGWYRQAPGKERELVAAIRRSGSSTYYADSVKGRFTISRDIAKNTVYLQMNSLKREDTAVYYCAKEGLSYRYYYWGQGTQVTVSS”, the “polyreactivity (PSR sort gate)” value is on record as “high polyreactivity”.

As to “QVQLVESGGGLVQAGGSLRLSCAASGSTFYRYAMGWSRQAPGKERELVAAITWRGGSTYYADSVKGRFTISRDNAKNTLYLQMNSLKPEDTAVYYCAADSYYYRPYHYGYDYWGQGTQVTVSS”, the “polyreactivity (PSR sort gate)” value was “high polyreactivity”.

“QVQLVESGGGLVQAGGSLRLSCAASGSTFYRYAMGWYRQAPGKEREFVAAISGSGGSTRYADSVKGRFTISRDNAKNSVFLQMNSLKPEDTAVYYCAARSRYGYSTFDYWGHGTQVTVSS”: the “polyreactivity (PSR sort gate)” value is on record as “high polyreactivity”.

“QVQLVESGGGLVQAGGSLRLSCAASGSTFYRYAMGWYRQAPGKERELVAAISTSGGRTYYADSVKGRFTISRDNAKNTVYLQMNSLKPEDTAVYYCAAPYQYGYWGQGTQVTVSS”: the “polyreactivity (PSR sort gate)” value was “high polyreactivity”.

Regarding “QVQLVESGGGLVQAGGSLRLSCAASGSTFYRYAMGWYRQAPGKERELVAAITRGGGNTYYADSVKGRFTISRDNAKNTVYLQMNSLKPEDTAVYYCNTDPTLRSRVGIWGFDYWGQGTQVTVSS”, the “polyreactivity (PSR sort gate)” value is given as “high polyreactivity”.

With “QVQLVESGGGLVQAGGSLRLSCAASGSTFYRYAMGWYRQAPGKERELVAAITRTGGSTYADSVKGRFTISRDNAKNTVYLQMNSLKPEDTAVYYCAVQRYYVSSISPFYYWGQGTQVTVSS”, the “polyreactivity (PSR sort gate)” value is given as “low polyreactivity”.

For the sequence “QVQLVESGGGLVQAGGSLRLSCAASGSTFYRYAMGWYRQAPGKERELVAAITRTTARTYYADSVKGRFTISRDYAKNTVYLQMNSLKPEDTAVYYCAADLYSWTWSGFRQYDYWGQGTQVTVSS”, the “polyreactivity (PSR sort gate)” value is “high polyreactivity”.

Turning to “QVQLVESGGGLVQAGGSLRLSCAASGSTFYRYAMGWYRQAPGKERELVARITWSAGRTYYADSVKGRFTISRDTAKNTVYLQMNSLKPEDTAVYYCAADSGGFASNKRMDYWGQGTQVTVSS”, the “polyreactivity (PSR sort gate)” value is listed as “high polyreactivity”.

Consider “QVQLVESGGGLVQAGGSLRLSCAASGSTFYRYPMGWYRQAPGKERELVAGITGSGRRTYYADSVKGRFTISRDNAKNTVYFQMNSVKPEDTAVYYCNKRRASWSPAGGTYNYWGQGTQVTVSS”, for which the “polyreactivity (PSR sort gate)” value is reported as “low polyreactivity”.

For the sequence “QVQLVESGGGLVQAGGSLRLSCAASGSTFYRYTMGWYRQAPGTERELVSAISRSGGSTYYADSVKGRFTISRDNAKNTVYLQMNSLKPEDTAVYYCATYGDFKSGYRYGYWGQGTQVTVSS”, the “polyreactivity (PSR sort gate)” value is on record as “high polyreactivity”.

Regarding “QVQLVESGGGLVQAGGSLRLSCAASGSTFYRYVMGWYRQAPGKERELVAAITWRGGTTYYADSVKGRFTISRDNAKNTVYLQMNRLNPEDTAVYYCNADRYLGVSEYKTYEYEYWGQGTQVTVSS”, the “polyreactivity (PSR sort gate)” value was “low polyreactivity”.

For the sequence “QVQLVESGGGLVQAGGSLRLSCAASGSTFYSNAMGWYRPAPGKERELVASITRGGSTNYADSVKGRFTISRDNAKNTVYLQMNSLKPEDTAVYYCNAERRYYFYRYDYWGQGTQVTVSS”, the “polyreactivity (PSR sort gate)” value is reported as “high polyreactivity”.

Consider “QVQLVESGGGLVQAGGSLRLSCAASGSTFYSNAMGWYRQAPGKERELVAAISYSGGRTYYADSVKGRFTISRDNAKNTVFLQMNSLKPEDTAVYYCNKAYRRYIWHMDYWGQGTQVTVSS”, for which the “polyreactivity (PSR sort gate)” value is listed as “high polyreactivity”.

With “QVQLVESGGGLVQAGGSLRLSCAASGSTFYSNAMGWYRQAPGKERELVASISWSSGSTYYADSVKGRFTISRDNAKNTVYLQMNSLKPDDTAVYYCATDAGGPYRFGYWGQGTQVTVSS”, the “polyreactivity (PSR sort gate)” value was “low polyreactivity”.
